{"source": "paper doi:10.1101/2023.05.03.539133", "about": "(bioRxiv, 2023)", "proteins": {"B1": {"name": "inner membrane cytochrome c ImcH from Geobacter sulfurreducens (recombinant, C-terminal 6x His-tag) (natural protein, UniProt Q747K6 1-507, looked up)", "chain": "MTLRKTAGYLWNPISLIGFLLAVVATGLIIAFIAMEMITGIDHPYIGLLVYFAFPGMLILGLILVPIGAWRVRNQRRTEVPEEVPPYPRVDFNDPHKRRLFIFFVLASVIFVLIVSVASILGFEFTESTTFCGELCHVVMEPEHKAWQGSPHARVKCVECHVGPGAEWYVKAKLSGLRQVWAVLTHSYHFPIATPIENLRPARDTCEQCHWPEKFYSGRQRVFYHYAPNKENTPREINMLIKIGGTPKSPHAMGIHWHIGTEVTYIARDRKRLDIPYVAVKQKDGSIVEYMDTEKPLTREEIAKAEKRRMDCIDCHNRPTHIYRSPAREMDEHIVSGQIDAGLPYIKKVAVEILEQPYKSKEEAHAAIEAKLPEYYAKNFPEVAKVKAAAINQAVAHVKDIYSRNFFPRMKVTWSTYPNHIGHFYTPGCFRCHDGKHKTSTGKIISKDCNMCHEMIGQKGENIPEGKVVKEFVHPADIGDALYNVNCSDCHMAAAEDSAGGEGPGKH", "modifications": "seven c-type hemes (CXXCH heme binding motifs)"}}, "key": {"SEC": {"molecular_target": "the molecule itself", "test": "SEC"}, "AUC": {"molecular_target": "the molecule itself", "test": "AUC"}}, "data": [{"protein": "B1", "values": [{"measurement": "stoichiometry N", "setting": "SEC", "value": 2}, {"measurement": "stoichiometry N", "setting": "AUC", "value": 4}]}]}
